Data: publication PMC11574045, “A cofactor-induced repressive type of transcription factor condensation can be induced by synthetic peptides to suppress tumorigenesis” (The EMBO Journal, 2024)

B1: BHLHE41 (protein, UniProt Q9C0J9 1-482, looked up)
Class E basic …: MDEGIPHLQERQLLEHRDFIGLDYSSLYMCKPKRSMKRDDTKDTYKLPHRLIEKKRRDRINECIAQLKDLLPEHLKLTTLGHLEKAVVLELTLKHLKALTALTEQQHQKIIALQNGERSLKSPIQSDLDAFHSGFQTCAKEVLQYLSRFESWTPREPRCVQLINHLHAVATQFLPTPQLLTQQVPLSKGTGAPSAAGSAAAPCLERAGQKLEPLAYCVPVIQRTQPSAELAAENDTDTDSGYGGEAEARPDREKGKGAGASRVTIKQEPPGEDSPAPKRMKLDSRGGGSGGGPGGGAAAAAAALLGPDPAAAAALLRPDAALLSSLVAFGGGGGAPFPQPAAAAAPFCLPFCFLSPSAAAAYVQPFLDKSGLEKYLYPAAAAAPFPLLYPGIPAPAAAAAAAAAAAAAAAAFPCLSSVLSPPPEKAGAAAATLLPHEVAPLGAPHPQHPHGRTHLPFAGPREPGNPESSAQEDPSQPGKEAP
B2: TAF1C (protein, UniProt Q15572 1-869, looked up)
TATA box-binding …: MDFPSSLRPALFLTGPLGLSDVPDLSFMCSWRDALTLPEAQPQNSENGALHVTKDLLWEPATPGPLPMLPPLIDPWDPGLTARDLLFRGGCRYRKRPRVVLDVTEQISRFLLDHGDVAFAPLGKLMLENFKLEGAGSRTKKKTVVSVKKLLQDLGGHQPWGCPWAYLSNRQRRFSILGGPILGTSVASHLAELLHEELVLRWEQLLLDEACTGGALAWVPGRTPQFGQLVYPAGGAQDRLHFQEVVLTPGDNPQFLGKPGRIQLQGPVRQVVTCTVQGESKALIYTFLPHWLTCYLTPGPFHPSSALLAVRSDYHCAVWKFGKQWQPTLLQAMQVEKGATGISLSPHLPGELAICSRSGAVCLWSPEDGLRQIYRDPETLVFRDSSSWRWADFTAHPRVLTVGDRTGVKMLDTQGPPGCGLLLFRLGAEASCQKGERVLLTQYLGHSSPKCLPPTLHLVCTQFSLYLVDERLPLVPMLKWNHGLPSPLLLARLLPPPRPSCVQPLLLGGQGGQLQLLHLAGEGASVPRLAGPPQSLPSRIDSLPAFPLLEPKIQWRLQERLKAPTIGLAAVVPPLPSAPTPGLVLFQLSAAGDVFYQQLRPQVDSSLRRDAGPPGDTQPDCHAPTASWTSQDTAGCSQWLKALLKVPLAPPVWTAPTFTHRQMLGSTELRREEEEGQRLGVLRKAMARGQLLLQRDLGSLPAAEPPPAPESGLEDKLSERLGEAWAGRGAAWWERQQGRTSEPGRQTRRPKRRTQLSSSFSLSGHVDPSEDTSSPHSPEWPPADALPLPPTTPPSQELTPDACAQGVPSEQRQMLRDYMAKLPPQRDTPGCATTPPHSQASSVRATRSQQHTPVLSSSQPLRKKPRMGF
B3: TAF9 (protein, UniProt Q8VI33 1-264, looked up)
Transcription initiation …: MESGKMASPKSMPKDAQMMAQILKDMGITEYEPRVINQMLEFAFRYVTTILDDAKIYSSHAKKATVDADDVRLAIQCRADQSFTSPPPRDFLLDIARQRNQTPLPLIKPYSGPRLPPDRYCLTAPNYRLKSLQKKAPAPAGRITVPRLSVGSVSSRPSTPTLGTPTPQTMSVSTKVGTPMSLTGQRFTVQMPASQSPAVKASIPATSTVQNVLINPSLIGSKNILITTNMVSQNTAESANALKRKREDDDDDDDDDDDDDYDNM
B4: TADA3L (protein, UniProt O75528 1-432, looked up)
Transcriptional adapter 3: MSELKDCPLQFHDFKSVDHLKVCPRYTAVLARSEDDGIGIEELDTLQLELETLLSSASRRLRVLEAETQILTDWQDKKGDRRFLKLGRDHELGAPPKHGKPKKQKLEGKAGHGPGPGPGRPKSKNLQPKIQEYEFTDDPIDVPRIPKNDAPNRFWASVEPYCADITSEEVRTLEELLKPPEDEAEHYKIPPLGKHYSQRWAQEDLLEEQKDGARAAAVADKKKGLMGPLTELDTKDVDALLKKSEAQHEQPEDGCPFGALTQRLLQALVEENIISPMEDSPIPDMSGKESGADGASTSPRNQNKPFSVPHTKSLESRIKEELIAQGLLESEDRPAEDSEDEVLAELRKRQAELKALSAHNRTKKHDLLRLAKEEVSRQELRQRVRMADNEVMDAFRKIMAARQKKRTPTKKEKDQAWKTLKERESILKLLDG
B5: SUV39H1 (protein, UniProt O43463 1-412, looked up)
Histone-lysine …: MAENLKGCSVCCKSSWNQLQDLCRLAKLSCPALGISKRNLYDFEVEYLCDYKKIREQEYYLVKWRGYPDSESTWEPRQNLKCVRILKQFHKDLERELLRRHHRSKTPRHLDPSLANYLVQKAKQRRALRRWEQELNAKRSHLGRITVENEVDLDGPPRAFVYINEYRVGEGITLNQVAVGCECQDCLWAPTGGCCPGASLHKFAYNDQGQVRLRAGLPIYECNSRCRCGYDCPNRVVQKGIRYDLCIFRTDDGRGWGVRTLEKIRKNSFVMEYVGEIITSEEAERRGQIYDRQGATYLFDLDYVEDVYTVDAAYYGNISHFVNHSCDPNLQVYNVFIDNLDERLPRIAFFATRTIRAGEELTFDYNMQVDPVDMESTRMDSNFGLAGLPGSPKKRVRIECKCGTESCRKYLF
B6: TADA2B (protein, UniProt Q86TJ2 1-420, looked up)
Transcriptional adapter 2-beta: MAELGKKYCVYCLAEVSPLRFRCTECQDIELCPECFSAGAEIGHHRRYHGYQLVDGGRFTLWGPEAEGGWTSREEQLLLDAIEQFGFGNWEDMAAHVGASRTPQEVMEHYVSMYIHGNLGKACIPDTIPNRVTDHTCPSGGPLSPSLTTPLPPLDISVAEQQQLGYMPLRDDYEIEYDQDAETLISGLSVNYDDDDVEIELKRAHVDMYVRKLKERQRRKNIARDYNLVPAFLGKDKKEKEKALKRKITKEEKELRLKLRPLYQFMSCKEFDDLFENMHKEKMLRAKIRELQRYRRNGITKMEESAEYEAARHKREKRKENKNLAGSKRGKEDGKDSEFAAIENLPGFELLSDREKVLCSSLNLSPARYVTVKTIIIKDHLQKRQGIPSKSRLPSYLDKVLKKRILNFLTESGWISRDAS
B7: STAT5B (protein, UniProt P51692 1-787, looked up)
Signal transducer and …: MAVWIQAQQLQGEALHQMQALYGQHFPIEVRHYLSQWIESQAWDSVDLDNPQENIKATQLLEGLVQELQKKAEHQVGEDGFLLKIKLGHYATQLQNTYDRCPMELVRCIRHILYNEQRLVREANNGSSPAGSLADAMSQKHLQINQTFEELRLVTQDTENELKKLQQTQEYFIIQYQESLRIQAQFGPLAQLSPQERLSRETALQQKQVSLEAWLQREAQTLQQYRVELAEKHQKTLQLLRKQQTIILDDELIQWKRRQQLAGNGGPPEGSLDVLQSWCEKLAEIIWQNRQQIRRAEHLCQQLPIPGPVEEMLAEVNATITDIISALVTSTFIIEKQPPQVLKTQTKFAATVRLLVGGKLNVHMNPPQVKATIISEQQAKSLLKNENTRNDYSGEILNNCCVMEYHQATGTLSAHFRNMSLKRIKRSDRRGAESVTEEKFTILFESQFSVGGNELVFQVKTLSLPVVVIVHGSQDNNATATVLWDNAFAEPGRVPFAVPDKVLWPQLCEALNMKFKAEVQSNRGLTKENLVFLAQKLFNNSSSHLEDYSGLSVSWSQFNRENLPGRNYTFWQWFDGVMEVLKKHLKPHWNDGAILGFVNKQQAHDLLINKPDGTFLLRFSDSEIGGITIAWKFDSQERMFWNLMPFTTRDFSIRSLADRLGDLNYLIYVFPDRPKDEVYSKYYTPVPCESATAKAVDGYVKPQIKQVVPEFVNASADAGGGSATYMDQAPSPAVCPQAHYNMYPQNPDSVLDTDGDFDLEDTMDVARRVEELLGRPMDSQWIPHAQS
B8: TADA2L (protein, UniProt O75478 1-443, looked up)
Transcriptional adapter …: MDRLGPFSNDPSDKPPCRGCSSYLMEPYIKCAECGPPPFFLCLQCFTRGFEYKKHQSDHTYEIMTSDFPVLDPSWTAQEEMALLEAVMDCGFGNWQDVANQMCTKTKEECEKHYMKHFINNPLFASTLLNLKQAEEAKTADTAIPFHSTDDPPRPTFDSLLSRDMAGYMPARADFIEEFDNYAEWDLRDIDFVEDDSDILHALKMAVVDIYHSRLKERQRRKKIIRDHGLINLRKFQLMERRYPKEVQDLYETMRRFARIVGPVEHDKFIESHALEFELRREIKRLQEYRTAGITNFCSARTYDHLKKTREEERLKRTMLSEVLQYIQDSSACQQWLRRQADIDSGLSPSIPMASNSGRRSAPPLNLTGLPGTEKLNEKEKELCQMVRLVPGAYLEYKSALLNECNKQGGLRLAQARALIKIDVNKTRKIYDFLIREGYITKG

Tested on: HEK293FT cells transfected with TF library
Test: Screening of TF condensates based on fluorescent puncta
Format: cell-based
Details: Figure 1B numerical data; TF library screen, one value per transcriptional factor
Summary of the method: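 TF plasmids (final 1.6 μg/ml) reverse-transfected with PEI (4.8 μg/ml) into HEK293FT cells; after 60 h, cells cultured ±glucose for 12 h, fixed in 4% PFA and immunostained for Flag or GAL4 tags with Alexa 488 secondaries. Puncta scored by automated imaging of 50 random fields per well.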

Molecule | Z score of condensed fraction
B1 | -0.9569
B2 | 0.1895
B3 | -0.7072
B4 | 1.084
B5 | -0.8281
B6 | -0.4021
B7 | 2.437
B8 | 2.809
